Test results: patent publication US20020182595, “Method of identifying cellular regulators of adeno-associated virus (AAV)” (published 2002)
Positions count from the first letter of the chain named.

Columns and labels:
ZF5 zinc finger 4 mutant = biological target: T1, ZF5 zinc finger 4 mutant (Homo sapiens, UniProt O43829 O43829:1-449, C363S); assay: EMSA; no shift detected; details: tags: untagged and N-terminal 6xMyc versions; label: 32P
T1 sequence: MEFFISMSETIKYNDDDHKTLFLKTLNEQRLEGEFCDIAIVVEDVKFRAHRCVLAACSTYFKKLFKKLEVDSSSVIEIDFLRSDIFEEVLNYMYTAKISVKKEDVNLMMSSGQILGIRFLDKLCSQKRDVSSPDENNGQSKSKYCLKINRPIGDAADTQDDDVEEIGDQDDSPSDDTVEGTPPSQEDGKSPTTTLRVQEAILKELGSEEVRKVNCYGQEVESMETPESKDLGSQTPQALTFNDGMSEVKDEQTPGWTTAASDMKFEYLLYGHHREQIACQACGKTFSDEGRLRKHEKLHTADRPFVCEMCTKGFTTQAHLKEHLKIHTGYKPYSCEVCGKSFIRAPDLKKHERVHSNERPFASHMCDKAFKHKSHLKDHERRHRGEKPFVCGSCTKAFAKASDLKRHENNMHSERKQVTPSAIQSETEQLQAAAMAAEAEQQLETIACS

[1] = biological target: T2, ZF5C (clone A25, C-terminal ZF5 fragment) (Homo sapiens, UniProt O43829 O43829:308-449); assay: EMSA; blocked by wild-type RRS competitor; details: tags: N-terminal 6xMyc; label: 32P
T2 sequence: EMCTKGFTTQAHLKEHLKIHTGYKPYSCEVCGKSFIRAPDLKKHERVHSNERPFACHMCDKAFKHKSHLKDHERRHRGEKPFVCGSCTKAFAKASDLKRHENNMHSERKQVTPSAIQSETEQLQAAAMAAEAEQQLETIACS

Rep78 = biological target: T3, Rep78 (UniProt Q89268 Q89268:1-621); assay: EMSA; blocked by wild-type RRS competitor; details: label: 32P
T3 sequence: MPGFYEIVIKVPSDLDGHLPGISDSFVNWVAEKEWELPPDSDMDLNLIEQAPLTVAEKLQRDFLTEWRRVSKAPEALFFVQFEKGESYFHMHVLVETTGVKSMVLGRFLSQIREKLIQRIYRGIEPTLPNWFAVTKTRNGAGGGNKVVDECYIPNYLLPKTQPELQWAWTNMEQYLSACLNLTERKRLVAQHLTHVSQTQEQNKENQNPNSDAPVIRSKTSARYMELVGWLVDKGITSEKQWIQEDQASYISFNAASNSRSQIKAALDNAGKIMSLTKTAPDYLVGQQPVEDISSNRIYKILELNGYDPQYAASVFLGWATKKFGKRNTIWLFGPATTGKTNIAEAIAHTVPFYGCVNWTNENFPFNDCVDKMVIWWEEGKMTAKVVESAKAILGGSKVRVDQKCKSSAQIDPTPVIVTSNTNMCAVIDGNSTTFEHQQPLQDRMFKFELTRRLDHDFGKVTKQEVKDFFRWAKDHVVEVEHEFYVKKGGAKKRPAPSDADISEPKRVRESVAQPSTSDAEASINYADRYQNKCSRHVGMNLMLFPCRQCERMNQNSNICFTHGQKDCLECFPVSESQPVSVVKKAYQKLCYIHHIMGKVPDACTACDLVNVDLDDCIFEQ

ZF5 = biological target: T4, ZF5 (Homo sapiens, UniProt O43829 O43829:1-449); assay: EMSA; competed by excess unlabeled wild-type RRS; details: tags: untagged and N-terminal 6xMyc versions; label: 32P
T4 sequence: T1 sequence with S363C

B1: RRS probe (core of 32-bp oligonucleotide) (dsDNA)
DNA 1: CTGCGCGCTCGCTCGCTCAC
DNA 2: GTGAGCGAGCGAGCGCGCAG
binding result (ZF5 zinc finger 4 mutant): no binding | binding result [1]: binds | binding result (Rep78): binds | binding result (ZF5): binds
